# Literature values as cited in patent publication US20040072753A1, “Peptides for use in the treatment of alzheimer's disease” (priority 2000, published 2004).
# B1: catalase: antioxidant enzyme that binds Aβ (protein)
# chain: ADSRDPASDQMQHWKEQRAAQKADVLTTGAGNPVGDKLNVITVGPRGPLLVQDVVFTDEMAHFDRERIPERVVHAKGAGAFGYFEVTHDITKYSKAKVFEHIGKKTPIAVRFSTVAGESGSADTVRDPRGFAVKFYTEDGNWDLVGNNTPIFFIRDPILFPSFIHSQKRNPQTHLKDPDMVWDFWSLRPESLHQVSFLFSDRGIPDGHRHMNGYGSHTFKLVNANGEAVYCKFHYKTDQGIKNLSVEDAARLSQEDPDYGIRDLFNAIATGKYPSWTFYIQVMTFNQAETFPFNPFDLTKVWPHKDYPLIPVGKLVLNRNPVNYFAEVEQIAFDPSNMPPGIEASPDKMLQGRLFAYPDTHRHRLGPNYLHIPVNCPYRARVANYQRDGPMCMQDNQGGAPNYYPNSFGAPEQQPSALEHSIQYSGEVRRFNTANDDNVTQVRAFYVNVLNEEQRKRLCENIAGHLKDAQIFIQKKAVKNFTEVHPDYGSHIQALLDKYNAEKPKNAIHTFVQSGSHLAAREKANL
# Biological target: Aβ (Homo sapiens, UniProt P05067)
# Conditions: Milton, Biochem. J. 344: 293-296 (1999); read-out: binding KD for catalase
molecule,measurement,value
B1,Kd,3.3 nM
